Assay results as given in the supplement of paper PMC11908140.

B1: library; numbered along this chain (parent)
chain: MRKPRAAVGSGHRKQAASQEGRQKHAKNNSQAKPSACDGLARQPEEVVLQASVSSYHLFRDVAEVTAFRGSLLSWYDQEKRDLPWRRRAEDEMDLDRRAYAVWVSEVMLQQTQVATVINYYTGWMQKWPTLQDLASASLEEVNQLWAGLGYYSRGRRLQEGARKVVEELGGHMPRTAETLQQLLPGVGRYTAGAIASIAFGQATGVVDGNVARVLCRVRAIGADPSSTLVSQQLWGLAQQLVDPARPGDFNQAAMELGATVCTPQRPLCSQCPVESLCRARQRVEQEQLLASGSLSGSPDVEECAPNTGQCHLCLPPSEPWDQTLGVVNFPRKASRKPPREESSATCVLEQPGALGAQILLVQRPNSGLLAGLWEFPSVTWEPSEQLQRKALLQELQRWAGPLPATHLRHLGEVVHTFSHIKLTYQVYGLALEGQTPVTTVPPGARWLTQEEFHTAAVSTAMKKVFRVYQGQQPGTCMGSKRSQVSSPCSRKKPRMGQQVLDNFFRSHISTDAHSLNSAAQ

Variants of: B1
Assay: 8OG:A repair function score (normalized; synonymous = 0, nonsense = -1) (normalized log-likelihood score); higher = more repair activity (WT-like)
Conditions: with 8OG:A DNA repair reporter (GFP) in HEK-293 MUTYH KO cells
In short: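 Lentiviral MUTYH cDNA NNN codon-scan libraries in HEK-293 MUTYH knockout cells (10 pg/ml doxycycline) were co-transfected with an 8OG:A GFP repair reporter plus mCherry. At 72 h, viable mCherry+ cells were sorted into GFP+ (repair) and GFP− bins, three replicates per tile, then tile amplicons were sequenced. Per-tile Rosace fitness scores became a normalized repair function score anchored on synonymous and nonsense distributions. Synonymous medians were set to 0 and nonsense to -1; variants under 300 counts per million at the start were removed.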

8OG:A repair function score of substitutions, site by site:
F330: Y -0.0696; G -0.999; K -0.928; S -0.765; R -0.958; P -1.04; E -0.809; H -0.37; Q -0.638; I -0.18; V -0.145; D -1.15; N -1.18; C -0.248; T -0.478; M -0.174; A -0.791; L -0.149; W -0.017
V328: R 0.0191; C 0.0567; F -0.215; Q 0.0461; I -0.0358; W -0.0588; P -0.507; G -0.0273; K 0.0221; N -0.0823; S -0.00939; Y -0.134; M -0.0227; E -0.157; D -0.227; L 0.0391; T -0.077; H -0.251; A -0.0621
N329: I -0.365; S -0.235; R -0.0858; V -0.246; T -0.361; W -0.525; A -0.161; F -0.345; D -0.288; C -0.102; M -0.264; H -0.276; Q -0.0134; G -0.365; K -0.105; L -0.301; E -0.365; Y -0.104; P -0.438
T324: R 0.0185; V -0.0374; Y -0.0755; W -0.0525; S 0.0429; N -0.188; Q -0.0692; P -0.236
V327: P -0.051; I -0.257; E -0.178; C -0.201; D -0.777; Q -0.4; S -0.274; L -0.388; W -0.425; G -0.53; R -0.583; H -0.532; K -0.459; F -0.513; N -0.696; M -0.375; A -0.205; Y -0.526; T -0.119
R332: G -0.193; T -0.246; M -0.332; A -0.0476; E -0.449; K -0.206; P -0.191; Q -0.0904; I -0.256; V -0.216; H -0.163; C -0.154; Y -0.166; S -0.0346; D -0.574; N -0.315; W 0.0485; F -0.0556; L -0.109
G326: Q -0.123; K -0.179; A -0.264; M -0.634; L -0.422; Y -0.435; H -0.203; P -0.475; N -0.0169; F -0.812; T -0.298; V -0.514; I -0.411; E -0.144; D -0.344; S -0.307; C -0.508; R -0.176
K333: C 0.053; A 0.0254; I -0.0317; H -0.0128; F -0.221; E -1.01; D -0.903; G -0.131
P331: N -0.316; A -0.0508; W -0.233; D -0.501; C -0.105; Q -0.608; I -0.596; R -0.474; Y -0.276; V -0.568; K -0.332; F -0.357; E -0.568; T -0.351; H -0.439; L -0.609; M -0.254; S -0.197; G -0.0671
L325: G -0.16; S -0.135; M -0.0835; W -0.0969; I -0.054; P -0.354; D -0.204; V -0.142; N -0.136; E -0.08; C -0.0972; K -0.0528; A -0.0759; F -0.00965; H -0.0759; R -0.00254; Q -0.141; T -0.113; Y -0.173
